For assay [1], the target named is ribosome-nascent chain complex with the HA-tagged GatY(1-153) nascent chain (E. coli) (UniProt P0C8J6). Put plainly: fluorescence correlation spectroscopy (FCS); endpoint: ~2 ug truncated mRNA and 100 nM labeled TF in PUREfrex solution, 5-15 min at 37 C, then measured; two-component fit with the fast component fixed to free TF.
The target in assay [2] is ribosome-nascent chain complex with the HA-tagged GatY(1-284) nascent chain (E. coli) (UniProt P0C8J6). Described as above.
The target in assay [3] is vacant ribosome. Put plainly: fluorescence correlation spectroscopy (FCS); 100 nM Alexa488-labeled TF with increasing ribosome concentrations in HKM buffer (25 mM Hepes-KOH pH 7.4, 100 mM KCl, 5 mM MgCl2); ratio of ribosome-bound TF from a two-component fit, Kd from a quadratic fit.
Assay [4] deals with ribosome-nascent chain complex with the HA-tagged GatY(1-153) nascent chain on the TMR-labeled Halo-S2 ribosome (E. coli | not stated) (UniProt P0C8J6). Put plainly: single-molecule total internal reflection fluorescence microscopy (TIRFM); RNCs held on a PEG/biotin-PEG slide through neutravidin and anti-HA biotin; 50 nM Alexa647-labeled TF, 50 nM TMR-labeled Halo-S2 ribosome; 10 frames/s for 150 s; residence times fitted.

Assay [5] addresses ribosome-nascent chain complex with the HA-tagged GatY(1-284) nascent chain on the TMR-labeled Halo-S2 ribosome (E. coli | not stated) (UniProt P0C8J6). The description is as above.
Assay [6] addresses Trigger factor (Escherichia coli) (UniProt P0A850). The settings on record: cited from earlier work.

As to “Alexa488-labeled trigger factor TF-R14C (from UniProt P0A850 1-432) (natural protein)”, the percent of TF in the slow component in assay [1] and in assay [2] was 90% in each case. Further, the Kd in assay [3] turned out to be 2240 nM.
Take “Alexa647-labeled TF-R14C (from UniProt P0A850 1-432) (natural protein)”: the half-life of the residence time (fast component) in assay [4] is 2.7 s. The half-life of the residence time (slow fraction) in assay [5] amounted to 9.8 s.
For Trigger factor (from UniProt P0A850), in assay [6], the Kd was 1500 nM.

Usually Kd stands for a measure of binding affinity in units of concentration.

(Values after publication PMC9452904.)
